Laboratory results as given in PMC10017041 (Science Advances, 2023).

Experiments:
Test in all cases: cryo-EM structure
[1] = biological target: CCT5 subunit of yeast TRiC (S. cerevisiae, UniProt P40413 1-562)
[2] = biological target: CCT7 subunit of yeast TRiC (S. cerevisiae, UniProt P42943 1-550)
[3] = biological target: CCT2 subunit of yeast TRiC (S. cerevisiae, UniProt P39076 1-527)
[4] = biological target: CCT6 subunit of yeast TRiC (S. cerevisiae, UniProt P39079 1-546)
[5] = biological target: CCT4 subunit of yeast TRiC (S. cerevisiae, UniProt P39078 1-528)
Sequence of CCT4 subunit of yeast TRiC (P39078 whole entry): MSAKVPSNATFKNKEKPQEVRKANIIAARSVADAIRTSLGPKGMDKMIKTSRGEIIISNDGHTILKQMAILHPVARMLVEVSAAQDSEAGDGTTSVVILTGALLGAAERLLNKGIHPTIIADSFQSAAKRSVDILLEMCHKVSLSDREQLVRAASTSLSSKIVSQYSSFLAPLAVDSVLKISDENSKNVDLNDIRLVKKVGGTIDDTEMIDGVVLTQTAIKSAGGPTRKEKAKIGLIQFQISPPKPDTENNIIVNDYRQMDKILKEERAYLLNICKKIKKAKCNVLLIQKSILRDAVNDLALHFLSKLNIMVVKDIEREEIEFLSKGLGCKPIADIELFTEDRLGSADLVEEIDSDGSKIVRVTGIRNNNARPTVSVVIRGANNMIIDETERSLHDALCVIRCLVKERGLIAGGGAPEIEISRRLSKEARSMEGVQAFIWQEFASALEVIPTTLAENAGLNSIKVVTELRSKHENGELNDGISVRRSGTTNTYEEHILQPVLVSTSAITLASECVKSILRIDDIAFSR

[6] = biological target: CCT1 subunit of yeast TRiC (S. cerevisiae, UniProt P12612 1-559)
Sequence of CCT1 subunit of yeast TRiC (P12612 whole entry): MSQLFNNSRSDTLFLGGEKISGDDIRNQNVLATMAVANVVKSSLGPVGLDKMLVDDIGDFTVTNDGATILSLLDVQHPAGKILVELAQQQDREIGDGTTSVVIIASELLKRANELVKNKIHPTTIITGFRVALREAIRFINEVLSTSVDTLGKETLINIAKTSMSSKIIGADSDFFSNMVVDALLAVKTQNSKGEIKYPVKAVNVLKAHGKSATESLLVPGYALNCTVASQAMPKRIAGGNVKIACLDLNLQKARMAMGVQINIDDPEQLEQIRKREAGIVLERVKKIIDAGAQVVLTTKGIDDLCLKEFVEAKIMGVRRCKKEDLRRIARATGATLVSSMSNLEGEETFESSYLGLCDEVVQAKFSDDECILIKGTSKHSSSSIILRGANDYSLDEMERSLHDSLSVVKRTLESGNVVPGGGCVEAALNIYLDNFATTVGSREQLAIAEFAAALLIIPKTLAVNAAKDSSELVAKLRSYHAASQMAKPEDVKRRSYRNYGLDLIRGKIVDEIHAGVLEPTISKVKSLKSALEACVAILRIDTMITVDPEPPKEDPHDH

[7] = biological target: CCT3 subunit of yeast TRiC (S. cerevisiae, UniProt P39077 1-534)
Sequence of CCT3 subunit of yeast TRiC (P39077 whole entry): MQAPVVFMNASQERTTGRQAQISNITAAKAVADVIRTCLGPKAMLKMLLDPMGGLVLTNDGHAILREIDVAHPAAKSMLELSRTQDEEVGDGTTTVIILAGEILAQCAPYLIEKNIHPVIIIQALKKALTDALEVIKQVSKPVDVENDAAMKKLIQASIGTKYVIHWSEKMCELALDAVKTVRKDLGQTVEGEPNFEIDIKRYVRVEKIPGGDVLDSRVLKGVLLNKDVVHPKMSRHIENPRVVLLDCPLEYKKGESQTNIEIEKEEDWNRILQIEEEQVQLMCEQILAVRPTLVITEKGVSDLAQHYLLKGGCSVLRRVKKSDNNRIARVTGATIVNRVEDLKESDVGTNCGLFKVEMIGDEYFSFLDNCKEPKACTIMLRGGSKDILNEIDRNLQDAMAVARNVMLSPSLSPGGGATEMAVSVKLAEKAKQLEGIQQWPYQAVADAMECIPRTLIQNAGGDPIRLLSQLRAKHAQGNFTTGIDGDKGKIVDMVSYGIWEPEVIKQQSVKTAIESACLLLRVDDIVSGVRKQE

Sequence of CCT2 subunit of yeast TRiC (P39076 whole entry): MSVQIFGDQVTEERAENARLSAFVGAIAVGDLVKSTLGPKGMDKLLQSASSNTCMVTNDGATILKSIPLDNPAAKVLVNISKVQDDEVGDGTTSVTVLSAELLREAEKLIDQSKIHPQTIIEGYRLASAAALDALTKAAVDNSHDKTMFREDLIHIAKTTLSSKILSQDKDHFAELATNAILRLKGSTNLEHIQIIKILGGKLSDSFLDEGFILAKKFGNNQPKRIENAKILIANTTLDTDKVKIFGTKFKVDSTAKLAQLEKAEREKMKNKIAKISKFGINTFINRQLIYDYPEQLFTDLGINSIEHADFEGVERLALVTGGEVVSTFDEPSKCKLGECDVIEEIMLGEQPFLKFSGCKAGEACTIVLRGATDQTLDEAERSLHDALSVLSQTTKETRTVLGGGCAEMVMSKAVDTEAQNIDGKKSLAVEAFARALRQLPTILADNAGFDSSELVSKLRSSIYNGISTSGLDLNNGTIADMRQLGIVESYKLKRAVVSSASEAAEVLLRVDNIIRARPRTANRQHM
Sequence of CCT7 subunit of yeast TRiC (P42943 whole entry): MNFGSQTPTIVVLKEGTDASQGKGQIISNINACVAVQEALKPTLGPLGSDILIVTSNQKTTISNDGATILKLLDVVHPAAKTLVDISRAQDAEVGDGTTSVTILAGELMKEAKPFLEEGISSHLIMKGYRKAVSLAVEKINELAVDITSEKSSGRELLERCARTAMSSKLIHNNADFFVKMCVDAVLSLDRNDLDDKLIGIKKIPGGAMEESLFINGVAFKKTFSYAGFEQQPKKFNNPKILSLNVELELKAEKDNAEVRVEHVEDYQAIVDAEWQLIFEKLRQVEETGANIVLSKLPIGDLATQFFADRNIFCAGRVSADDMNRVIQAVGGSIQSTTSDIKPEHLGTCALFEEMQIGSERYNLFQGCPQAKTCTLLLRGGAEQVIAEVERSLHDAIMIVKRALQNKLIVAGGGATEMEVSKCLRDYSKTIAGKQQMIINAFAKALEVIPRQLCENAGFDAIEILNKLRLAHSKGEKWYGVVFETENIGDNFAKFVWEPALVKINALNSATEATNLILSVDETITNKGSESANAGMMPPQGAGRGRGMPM
Sequence of CCT5 subunit of yeast TRiC (P40413 whole entry): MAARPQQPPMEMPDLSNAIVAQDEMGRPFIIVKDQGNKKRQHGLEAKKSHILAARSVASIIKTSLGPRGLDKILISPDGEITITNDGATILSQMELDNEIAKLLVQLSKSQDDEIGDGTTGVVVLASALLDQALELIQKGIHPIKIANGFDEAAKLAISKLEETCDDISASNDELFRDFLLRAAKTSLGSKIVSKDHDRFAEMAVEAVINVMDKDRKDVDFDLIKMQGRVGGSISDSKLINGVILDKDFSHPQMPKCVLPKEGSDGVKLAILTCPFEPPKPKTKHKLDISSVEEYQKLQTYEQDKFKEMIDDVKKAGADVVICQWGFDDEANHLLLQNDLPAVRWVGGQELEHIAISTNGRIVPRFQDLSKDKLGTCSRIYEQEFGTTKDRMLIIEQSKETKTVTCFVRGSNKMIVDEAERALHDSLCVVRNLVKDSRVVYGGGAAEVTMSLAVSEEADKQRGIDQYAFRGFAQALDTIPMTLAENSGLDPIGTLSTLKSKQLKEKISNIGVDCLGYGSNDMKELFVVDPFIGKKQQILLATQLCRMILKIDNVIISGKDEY
Sequence of CCT6 subunit of yeast TRiC (P39079 whole entry): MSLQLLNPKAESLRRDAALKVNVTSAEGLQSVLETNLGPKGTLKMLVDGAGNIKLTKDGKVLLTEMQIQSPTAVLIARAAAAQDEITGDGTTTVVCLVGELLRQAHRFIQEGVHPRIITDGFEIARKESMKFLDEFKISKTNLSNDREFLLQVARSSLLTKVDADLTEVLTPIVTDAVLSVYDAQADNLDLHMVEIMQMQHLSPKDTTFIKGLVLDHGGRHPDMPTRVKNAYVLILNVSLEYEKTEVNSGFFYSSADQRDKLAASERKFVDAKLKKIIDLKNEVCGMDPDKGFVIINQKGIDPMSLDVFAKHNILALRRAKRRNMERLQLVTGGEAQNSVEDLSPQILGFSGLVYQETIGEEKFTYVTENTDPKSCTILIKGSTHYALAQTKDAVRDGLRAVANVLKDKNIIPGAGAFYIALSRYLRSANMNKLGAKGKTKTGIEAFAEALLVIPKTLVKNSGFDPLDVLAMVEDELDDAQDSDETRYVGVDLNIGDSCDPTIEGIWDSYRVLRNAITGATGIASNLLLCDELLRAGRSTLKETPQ

binding result [1]: binds | binding result [2]: binds | binding result [3]: binds | binding result [4]: binds | binding result [5]: binds | binding result [6]: binds | binding result [7]: binds
B1: yeast plp2 (homolog of PhLP2 in Saccharomyces cerevisiae) (natural protein, S. cerevisiae)
chain: MQNEPMFQVQVDESEDSEWNDILRAKGVIPERAPSPTAKLEEALEEAIAKQHENRLEDKDLSDLEELEDDEDEDFLEAYKIKRLNEIRKLQERSKFGEVFHINKPEYNKEVTLASQGKKYEGAQTNDNGEEDDGGVYVFVHLSLQSKLQSRILSHLFQSAACKFREIKFVEIPANRAIENYPESNCPTLIVYYRGEVIKNMITLLELGGNNSKMEDFEDFMVKVGAVAEGDNRLIMNRDDEESREERKLHYGEKKSIRSGIRGKFNVGIGGNDDGNINDDDDGFFD
